One protein from publication PMC3672086, “TWEAK-Independent Fn14 Self-Association and NF-κB Activation Is Mediated by the C-Terminal Region of the Fn14 Cytoplasmic Domain” (PLoS ONE, 2013) can be followed below.

The stoichiometry N is a count of units in the complex or per binding partner.

The data set deals with the molecule itself. The experiment in a line: cross-linking; cell surface proteins of transfected HEK293/NF-κB-luc/Fn14-HA cells cross-linked with 1 mM BS3 in PBS, 20 min, room temperature; lysis in HNTG buffer, reducing SDS-PAGE, anti-myc Western blot.

B1: myc epitope-tagged Fn14 extracellular domain deletion (Fn14-ΔEC) (receptor, human, UniProt Q9NP84 28-129, looked up)
chain: EQAPGAAAPPAPFRLLWPILGGALSLTFVLGLLSGFLVWRRCRRREKFTTPIEETGGEGCPAVALIQ
notes: human Fn14 splice variant (exon 2 skipped), 94-aa precursor missing amino acids 33-67 of the extracellular domain; mature myc-tagged protein 77 aa; Cloned from U87-luc cell mRNA; natural splice variant mRNA, endogenous protein not detected by the authors; also called ΔEC mutant; short Fn14 isoform; source: HEK293 or HEK293/NF-κB-luc/Fn14-HA cells, transiently transfected (pcDNA6/Fn14-ΔEC), on …
B1: the “stoichiometry N” value came to 2.
